Molecular target: recombinant Histone H3

B1: hCARM-1 (SEQ ID NO:9) (protein)
chain: MAAAAAAVGPGAGGAGSAVPGGAGPCATVSVFPGARLLTIGDANGEIQRHAEQQALRLEVRAGPDSAGIALYSHEDVCVFKCSVSRETECSRVGKQSFIITLGCNSVLIQFATPNDFCSFYNILKTCRGHTLERSVFSERTEESSAVQYFQFYGYLSQQQNMMQDYVRTGTYQRAILQNHTDFKDKIVLDVGCGSGILSFFAAQAGARKIYAVEASTMAQHAEVLVKSNNLTDRIVVIPGKVEEVSLPEQVDIIISEPMGYMLFNERMLESYLHAKKYLKPSGNMFPTIGDVHLAPFTDEQLYMEQFTKANFWYQPSFHGVDLSALRGAAVDEYFRQPVVDTFDIRILMAKSVKYTVNFLEAKEGDLHRIEIPFKFHMLHSGLVHGLAFWFDVAFIGSIMTVWLSTAPTEPLTHWYQVRCLFQSPLFAKAGDTLSGTCLLIANKRQSYDISIVAQVDQTGSKSSNLLDLKNPFFRYTGTTPSPPPGSHYTSPSENMWNTGSTYNLSSGMAVAGMPTAYDLSSVIASGSSVGHNNLIPLANTGIVNHTHSRMGSIMSTGIVQGSSGAQGSGGGSTSAHYAVNSQFTMGGPAISMASPMSIPTNTMHYGS
methylation of Histone H3 (in vitro methylation reaction, SDS-PAGE, exposed to film): Our experiments showed that hCARM-1 methylates Histone H3 efficiently
